Test results reported in patent US20230192853A1 (Genentech, published 2023).

Key:
[1] = molecular target: T1, rhesus monkey CD8 in CD8-rich tissues (in vivo) (rhesus monkey, UniProt P01732 23-235 (human entry)); assay: PET imaging in rhesus monkey
T1 construct: the target was seen by PET in lymph nodes, thymus and spleen; also called rhesus CD8
Protocol: Imaging experiments were performed with ¹⁸F-anti-CD8 VHH in a rhesus monkey to determine whether uptake could be detected in tissues that are normally CD8-rich. A rhesus monkey (2.5 kg) was injected with 64 micrograms ¹⁸F-anti-CD8 VHH containing a 1.2 mCi radiation dose.

[2] = molecular target: T2, human CD8 on cells (HPBALL cells, TALL1 cells, CD8+ T cells of human whole blood and PBMCs) (human, UniProt P01732 22-234); assay: PET MIP of TALL1 tumor xenografted mice
T2 construct: also called huCD8

[3] = molecular target: T3, one-armed single chain huCD8α/huCD8β-Fc (human, UniProt P10966 22-170); assay: SPR, Biacore T200, 37°C, CD8αβ-Fc captured, VHH as analyte
T3 construct: the whole entry is named; also called Human CD8αβ; CD8αβ-Fc; not shown: linker between CD8α and CD8β; not described; one polypeptide chain of an Fc (captured with an anti-HuIgG1 Fc kit); second Fc chain without fusion (one-armed format)
Protocol: (§1) The binding affinity for each VHH variant to both human (a one-armed single chain huCD8α/huCD8β-Fc) and cynomolgus monkey (a one-armed single chain cynoCD8α/cynoCD8β-Fc) were determined by Surface Plasmon Resonance (SPR). SPR experiments were carried out on the Biacore T200 (GE Healthcare) at 37° C. using HBS-P+ (GE Healthcare) running buffer. 1.5 μg/mL of CD8αβ-Fc was captured using an anti-HuIgG1 Fc capture kit (GE Healthcare) and monomeric VHHs were added as the analyte in solution at a flow rate of 100 μL/min. The VHH was titrated using a dilution series from 100-0 nM. Sensorgrams were fit to a 1:1 Langmuir model to identify kinetic parameters, including KD, kₒₙ and koff.

[4] = molecular target: T4, one-armed single chain cynoCD8α/cynoCD8β-Fc (cynomolgus monkey); assay: as above
T4 construct: the whole entry is named; also called Cyno CD8αβ; CD8αβ-Fc; not shown: linker between CD8α and CD8β; not described; one polypeptide chain of an Fc (captured with an anti-HuIgG1 Fc kit); second Fc chain without fusion (one-armed format)
Protocol: as §1

[5] = molecular target: T5, huCD8a-Fc (C-terminal hFc-tagged human CD8α receptor) (human, UniProt P01732 22-182); assay: SPR
T5 construct: the whole entry is named; also called CD8α-Fc; CD8α-hFc; not shown: human Fc tag at the C-terminus

[6] = molecular target: T3, one-armed single chain huCD8α/huCD8β-Fc; assay: affinity measurement, method not named in the sentence (SPR per paragraph 284)

T3 sequence (P10966 other isoform, or with tags, fused parts or gaps): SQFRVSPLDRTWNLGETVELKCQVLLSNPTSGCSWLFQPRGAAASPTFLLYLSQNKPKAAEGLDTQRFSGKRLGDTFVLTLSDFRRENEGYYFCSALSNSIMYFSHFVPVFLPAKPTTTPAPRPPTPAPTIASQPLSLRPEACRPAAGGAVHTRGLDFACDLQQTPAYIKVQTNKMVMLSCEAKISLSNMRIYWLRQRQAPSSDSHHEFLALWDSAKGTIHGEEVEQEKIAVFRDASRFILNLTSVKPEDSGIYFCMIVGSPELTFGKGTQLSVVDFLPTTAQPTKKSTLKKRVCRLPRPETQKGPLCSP
T4 sequence (P01732 other isoform, or with tags, fused parts or gaps): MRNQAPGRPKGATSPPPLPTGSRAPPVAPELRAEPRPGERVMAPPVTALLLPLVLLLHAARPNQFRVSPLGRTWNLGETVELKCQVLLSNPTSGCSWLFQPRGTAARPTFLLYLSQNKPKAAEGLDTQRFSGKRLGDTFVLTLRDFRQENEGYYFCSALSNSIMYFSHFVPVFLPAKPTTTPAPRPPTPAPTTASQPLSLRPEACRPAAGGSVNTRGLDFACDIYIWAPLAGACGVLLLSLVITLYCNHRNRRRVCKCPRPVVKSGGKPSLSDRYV
T2 sequence (P01732 22-234 limits assumed): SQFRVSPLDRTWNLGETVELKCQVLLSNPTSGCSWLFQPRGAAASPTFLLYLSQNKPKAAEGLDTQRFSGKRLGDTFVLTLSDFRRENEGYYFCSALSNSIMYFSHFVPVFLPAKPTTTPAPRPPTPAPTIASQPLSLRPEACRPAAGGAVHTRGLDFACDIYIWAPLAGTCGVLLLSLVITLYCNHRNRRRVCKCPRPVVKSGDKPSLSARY
T1 sequence (P01732 other isoform, or with tags, fused parts or gaps limits assumed): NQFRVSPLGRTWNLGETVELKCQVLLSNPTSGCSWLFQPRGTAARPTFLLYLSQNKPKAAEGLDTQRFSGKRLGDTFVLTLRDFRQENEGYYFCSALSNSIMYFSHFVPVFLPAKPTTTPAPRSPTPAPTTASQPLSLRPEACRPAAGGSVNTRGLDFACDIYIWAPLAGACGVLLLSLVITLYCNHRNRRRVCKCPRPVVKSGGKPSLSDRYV
T5 sequence (P01732 22-182 limits assumed): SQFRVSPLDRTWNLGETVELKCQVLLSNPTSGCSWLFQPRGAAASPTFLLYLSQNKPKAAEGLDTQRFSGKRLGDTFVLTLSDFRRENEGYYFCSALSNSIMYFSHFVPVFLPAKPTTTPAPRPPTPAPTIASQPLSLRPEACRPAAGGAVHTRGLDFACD

| Binder | Kd [3] | koff [3] | kon [3] | Kd [4] | koff [4] | kon [4] | further results |
| --- | --- | --- | --- | --- | --- | --- | --- |
| 18F-control VHH (18F-AlF-RESCA-modified 2C8v145) (VHH, RESCA chelator (Formula (I)) carrying [18F]-aluminum fluoride; site not stated) VHH: EVQLVESGGGLVQPGGSLRLSCAASGFTFDDYAIGWFRQAPGKGREGVACIRIFDRHTYYADSVKGRFTISSDNSKNTVYLQMNSLRAEDTATYYCAAGFFSGCTRPEGDMDYFGQGTLVQVQS |  |  |  |  |  |  | binding result [1]: no binding; binding result [2]: no binding |
| 2C8v142 VHH (VHH, also called hu2C8v142) VHH: EVQLVESGGGLVQPGGSLRLSCAASGFTFDDYVIGWFRQAPGKGREGVACIRIFDRHTYYADSVKGRFTISSDNSKNTVYLQMNSLRAEDTATYYCAAGSFFGCTRPEGDMDYFGQGTLVQVQS | 132 pM | 0.00176 s⁻¹ | 1.34e+07 M⁻¹ s⁻¹ | 344 pM | 0.0037 s⁻¹ | 1.09e+07 M⁻¹ s⁻¹ |  |
| 2C8v144 VHH (VHH, also called hu2C8v144) VHH: EVQLVESGGGLVQPGGSLRLSCAASGFTFDDYAIGWFRQAPGKGREGVACIRIFDRHTYYADSVKGRFTISSDNSKNTVYLQMNSLRAEDTATYYCAAGSFWGCTRPEGDMDYFGQGTLVQVQS | 49.7 pM | 0.000845 s⁻¹ | 1.7e+07 M⁻¹ s⁻¹ | 137 pM | 0.0019 s⁻¹ | 1.39e+07 M⁻¹ s⁻¹ |  |
| 2C8 VHH (llama anti-CD8 VHH wt2C8) (VHH, Monomeric VHH; VHHs were made both with a C-terminal His tag and tagless; also called 2C8.1-H; wild-type 2C8) VHH: EVQLVESGGGLVQAGGSLRLSCAASGFTFDDYAIGWFRQAPGKGREGVLCIRIFDRHTYSADSVKGRFTISSDNAQNTVYLHMNSLKPEDTAVYYCAAGSFWACTRPEGAMDYWGKGTQVTVSS |  |  |  |  |  |  | binding result [5]: binds |
| 2C8 with the A99G and A100fD mutations (VHH, name in Kabat numbering) VHH: EVQLVESGGGLVQAGGSLRLSCAASGFTFDDYAIGWFRQAPGKGREGVLCIRIFDRHTYSADSVKGRFTISSDNAQNTVYLHMNSLKPEDTAVYYCAAGSFWGCTRPEGDMDYWGKGTQVTVSS |  |  |  |  |  |  | fold improvement of affinity against the parental clone 2C8 [6]: ~10 fold |
